Data published in the DeepSol protein solubility set.

Test: soluble on expression in E. coli; label from the status in PepcDB or PDB records

| Sequence | soluble on expression in E. coli |
| --- | --- |
| MSLSRQRCIIVGASHGGVNLAFALRKEGYEGRITLIDADCNLPYHRPPLSKTHLIANEPAGQLLKPEQGYQKADISLMLGVSVVDVKSKNKQVLLDDGTRHPYTQLVLATGASPITPPIPGIDSAKHLYTIRTADDAHAIATAFKQSEQKRVVVIGGGYVGLETAASLRKSGAVVTVLEREPRLLARVTAPMMSDYFYALHRQHGVEVHNDKNVSEIKTNANENSVVCSDGSEYPADIIIVGVGVRVNTALADKANLEINNGIVVNEANQTSAQDIFAIGDCCAQFNPHYQRWLRLESVQNALDQGKVAAAAICHKAFKTQPVPWFWSDQYNIKLQMVGLSQGYDDVVMRKELDKPDSFSVWYFKGNELLAVDAVNNAKAYVLGTKFINAMEQVDKNKLTDNSAPLSASIIKEFAEGHHHHHH | soluble |
| MSLSRSLDSARSFLERLEARGGREGAVLAGEFSDIQACSAAWKADGVCSTVAGSRPENVRKNRYKDVLPYDQTRVILSLLQEEGHSDYINGNFIRGVDGSLAYIATQGPLPHTLLDFWRLVWEFGVKVILMACREIENGRKRCERYWAQEQEPLQTGLFCITLIKEKWLNEDIMLRTLKVTFQKESRSVYQLQYMSWPDRGVPSSPDHMLAMVEEARRLQGSGPEPLCVHCSAGCGRTGVLCTVDYVRQLLLTQMIPPDFSLFDVVLKMRKQRPAAVQTEEQYRFLYHTVAQMFCSTLQNASEGHHHHHH | soluble |
| MSLSRVPRPHIHQRISVEDIMKGNRRTLAKAITLAESSNPADSTRLGNLLREIHQMATVRTVPRFALSGSPGSGKSSLLDTLGYYLCEKKNMHVGVLAVDPSSTITHGSILGDKTRMEKLGTHLNSYIRPSPSGGHLGGVTSRAWEALEIFEAARFDVVFVETVGVGQSETQCKDLTDMMILLVPPASGDELQGIKKGVVEVADMVVVTKNDGRRKPLVQQTMSAYARAVMYTEEKQGFEKPVIAVSAEEGTNVPELWEAMLKMWNARLESGQIAHLRRAQSTKHFYNYFEMELLAKARRMTNLEMQNMAHRVWEHEMTPREAGDIMVLRTLREHLAADAAVQHDAGKRAEGHHHHHH | soluble |
| MSLSSEQQAMIDYVLAGKDVIVDATVGSGKTTAIQRLCSIMGADHDVLYLTYSKLLKVDAQQRVRGAKVQNYHGIVYPHLLKAGIKCGISESIREFNKNFKHISRTFPSYDLLVIDEYQDINEDYAELLRNIKSVNPLMQIVMVGDLEQKVRSDTTLDPQEFAAQLCEDPVFAPFTQSFRIGEAMAAGLADAWNKPIVGANTAQQIEYRSFAEAVVLIQSTEPSKLLCLGSRNGQMSDALNVVERKSPAKFNKKTVFASIRDGDSQIAHPNDAAVFTTFDSSKGLERDTCVVFDYDEEFWDMRLGYPNVDPVVMRNVFLVAASRGKNKVVFVRSDSLQAAYEAGADWAAGLAVGVVDNNTEVAPEVDAHTPAEESKGDVGEVQSQIERMMGFIPVSVFKELPELAPSEYARPISVTEAFDFKYAENVEACFDLLDVKRLDNGKGAAIEVNRSDGLIDLSPTVGNFQEAVFFKDYNVHTALSAYPSQFAKNLKRLVKKNNSVWRNCLIVTAASTEQMRYVDQVRSSIPVAAEKALVSRLSTRLNADSRNQIPLILDGEAVQSKVVRTPMSFAGVADAVHKGVLYELKFVSELTHPMFLQLAMYLVMSGMKDGILWNTRTDEAWQVRVPDPKRFLNAVVLCVSKQDYRVGNFDLPSTGGEGHHHHHH | not soluble |
| MSLSSILECIRTVGRGERGRKPLNFDQAFRVMDEYLNGECGDDQMAMLLMLIRVQNETQQEIAGFVKAFQSRMPAIGADIDWPCYAGKREAAGQPWHLLAAKILADNGHKVLMHGYHDRQPGRLHAEDYLDKFAIKKAESAEDAKRVLETQNIVYLPLSAFAPQAETMIGWKNRYGLRTPINTVVRALNPGQATVGIRGSFHPGFQQLHAEVEYEIGQTAHAVVSFKGQSGESEYNPKVSQTVWLSQPSGVTSHYWTEQMLSEVPMPTVCPFGTEETDMNQMANTVLTTIAVVLFAEMHDREQAFERAFSYWASYCAAEGHHHHHH | soluble |
| MSLSSIRKKDVERFILSDDYKPMVLKELYKKFRAKTREQRKKVREVVKKLEKEGRIFRDSRGRYRKLGEDLKVGTIEFTRSGYVAFVITDDFEEIAVPVEDTKYAMHKDRVVVEITGTWRGLPRGRVVRVLERGLKRVVGVFDHKGTFGFVVPDDPKIAYDFYVAPENIDGAKPNQKVIAEILKYPSPGKNPEAKVVKVLGDLDDPSIDLPSVIVKHDLPEPGEFPEEVIREANAIPARVRKKDLVGRKDLRDKVIVTIDGEDAKDFDDAISVEKLPNGNYLLGVHIADVSHYVKEGSALDQEAFKRGTSVYLIDTVIPMLPFRLSNGICSLVEGKDRLTMSVEMEIDRDGRVVRYDVYPSVIKSKKRMIYERVNEFLEDPSSMKEYEPFKDLIYNAVELAEILREARRKRGAILDIESDEVKVILDENGQVVDIVPRKRGIAEKLIEEFMIRANETVAEIFDHAGLPFMYRVHEEPDPETIFQLKNYLEAMGIRAKFSHKIHPGMLQKLLEKVKDHPLRSSVERLLVRSMKRAMYSAVNIGHFGLASYAYTHFTSPIRRYPDLVVHRLLKLYLEQNGYFTPEQIEKFSKVLPKIAKHCSRRERVADEAEWDLVAMKKVEYIARHIGEVFNVVVTNITKFGLFVEIPEKSISGLVHISTLDDYYYYDETRNMLIGKRKGKVFRLGDVLKAKVVRADKIRGEIDFVLVEEDEEEGHHHHHH | not soluble |
| MSLSSKDLKLSTDVCEQILRVVSRSNRLEELVLENAGLRTDFAQKLASALAHNPNSGLHTINLAGNPLEDRGVSSLSIQFAKLPKGLKHLNLSKTSLSPKGVNSLSQSLSANPLTASTLVHLDLSGNVLRGDDLSHMYNFLAQPNAIVHLDLSNTECSLDMVCGALLRGCLQYLAVLNLSRTVFSHRKGKEVPPSFKQFFSSSLALMHINLSGTKLSPEPLKALLLGLACNHNLKGVSLDLSNCELRSGGAQVLEGCIAEIHNITSLDISDNGLESDLSTLIVWLSKNRSIQHLALGKNFNNMKSKNLTPVLDNLVQMIQDEESPLQSLSLADSKLKTEVTIIINALGSNTSLTKVDISGNGMGDMGAKMLAKALQINTKLRTVIWDKNNITAQGFQDIAVAMEKNYTLRFMPIPMYDASQALKTNPEKTEDALQKIENYLLRNHETRKYLQEQAYRLQQGIVTSTTQQMIDRICVKVQDHLNSLRNCGGDAIQEDLKSAERLMRDAKNSKTLLPNLYHVGGASWAGASGLLSSPIQETLESMAGEVTRVVDEQLKALLESMVDAAENLCPNVMKKAHIRQDLIHASTEKISIPRTFVKNVLLEQSGIDILNKISEVKLTVASFLSDRIVDEILDALSHCHHKLADHFSRRGKTLPQQEGHHHHHH | not soluble |
| MSLSSKEYFSDTDSFENTPCPLCGSESSSLLYEINSYKYNKCNNCELVYLNPRLKEESLLEYYAQDSFYAEYSSGTGYEIQERALRSTFSRYMKELHKRNVTGGKLLEIGCGFGFLLDEAKNYFDYRIGTDFSSEAVSHAKKYADNVYCGGLEAIPSDTSTKFDCVITFSVLEHVYNPNTFIQEIQNYMAPNGSLVVSTPFIGGMWYKILGKKWSFFIPPEHVCLYNHNSISQLLKQNGFKNIEMFISSHAWPVAGFLSKMGMRKLSSMTLKLKIGDVPLFVPFTIINIIGSKEGHHHHHH | soluble |
| MSLSSVNCIEQTTEWTACSKSCGMGFSTRVTNRNRQCEMLKQTRLCMVRPCEQEPEQPTDKKGKKCLRTKKSLKAIHLQFKNCTSLHTYKPRFCGVCSDGRCCTPHNTKTIQAEFQCSPGQIVKKPVMVIGTCTCHTNCPKNNEAFLQELELKTTRGKMEGHHHHHH | not soluble |
| MSLSTADALDDENTFKILVATDIHLGFMEKDAVRGNDTFVTLDEILRLAQENEVDFILLGGDLFHENKPSRKTLHTCLELLRKYCMGDRPVQFEILSDQSVNFGFSKFPWVNYQDGNLNISIPVFSIHGNHDDPTGADALCALDILSCAGFVNHFGRSMSVEKIDISPVLLQKGSTKIALYGLGSIPDERLYRMFVNKKVTMLRPKEDENSWFNLFVIHQNRSKHGSTNFIPEQFLDDFIDLVIWGHEHECKIAPTKNEQQLFYISQPGSSVVTSLSPGEAVKKHVGLLRIKGRKMNMHKIPLHTVRQFFMEDIVLANHPDIFNPDNPKVTQAIQSFCLEKIEEMLENAERERLGNSHQPEKPLVRLRVDYSGGFEPFSVLRFSQKFVDRVANPKDIIHFFRHREQKEKTGEEINFGKLITKPSEGTTLRVEDLVKQYFQTAEKNVQLSLLTERGMGEAVQEFVDKEEKDAIEELVKYQLEKTQRFLKERHIDALEDKIDEEVRRFRETRQKNTNEEDDEVREAMTRARALREGHHHHHH | not soluble |
| MSLSTKNHFIFPTYVQMYPYSKDRPFLKQVREKLRYYGYKWLYQKQCSQLVDFLNTETQWQSLFTQDYYRTNTILTTFCDKRFSASERLTAITENLRLAEEKMGRSLCQQLLDQQHIVLTQLTEDLRLSLSINHIDPFEGYFSINIRNQNNERVYDSSFTFLSPNKLLIASIQGPSSDNAQELVKQATKALHGMRPMFMLVNGFKMLAEKWQCELVGIPHKAQGKYRLSARSKILFNYDEFWQENQGEYRHNYWQLPLHIERKQLEDIASKKRSMYRKRYEMLDQMALDIQQLEGHHHHHH | soluble |
| MSLSTTPGLYAVIKLTHLYLPGTLKIHHLKGQLLDQFSIGEMEYQHQGTKIKIFNLAVNWRFSSLLHKKLPIDSMSAEMIEINQKTPMLILKNIKLSGYLNQQSIKLNTLQFNYWNQLITSQLELSNSFPHVFSGKIRLNPHSTNKNIFSGGVDIGGNRNQIQWGGEFEGPGKITINGSLQQLKQIKQIIKWRDLHWQDNKNHNLKSSQGRIEVSGTIPNLAIDLKSKLGIDQLKNWQMNAAIKGKLPWQWNINATFSQPLDFSSKLDGLYTKFALKMETKNDHHADFLITIAPGHYQMTENNLMPLIQFTGGNIKGSLSQKQFSGQGVLFLDAYKKVNFNFKFPEFNVYQDIAQQTIDAKLSILFNSLDFLQNASPYLINPKGQFLASIHAKGTLNKPIIESKLALNKGSFNIPALGLNITDMVLAVFSKKDGWEATGSIHSSEKKLTLKGQGIFNKELGGTVSIEGSNFPIANNKEFQVNISPQLQVRFTPSLCQITGTIQIPNAHIKPQTFTNSLVATDDIVFTSKNTQPITPLFNTNMSVRVEMGEEVELTFKGLHAYLAGIVTINQLSQGPITANGELTVRKGEYKAYGQDLSIEQGQLIFTGGRIDNPEINLRASKNISNSFGSVSGSSELFNFNNYNNLNVGNNFNVGVEVAGRLQSPKIQLFSNPPTLSQADILSFLVIGRPANQADKAKGQLLLTAISSMNLGTGTNGTQLLEQLKQKLGFDFNVQTTTNFNQQTNKISESTGVVVGKSLSDRIYLSYNVGLSQTDPNVLTLKYILNKFLSIQVSSSDSGNGVDILYTKSTSSPEEGHHHHHH | not soluble |
| MSLSVEAMIGQLNAEIKRLDRLIRSHLNQHPELKKDFDLLTSIKSVGYQLGLNMLVILRSHDFATAEQAAAFLGVVPVEKYSGTSVRGCPKLSKIGPPEIRAKLYLASLCGLRFNPLMKAMYERLCLRGKGKMCAIGALMRKLVHWCYGVLKTQKPFDVGYLSSYARSACKAAEGHHHHHH | soluble |
| MSLSVKILFKNATVFPITSRPFKGDVLVSNGKVEKVGENIEDPDAEIVDLTGKFLFPGFVDAHSHIGLFEEGVGYYYSDGNEATDPVTPHVKALDGFNPQDPAIERALAGGVTSVMIVPGSANPVGGQGSVIKFRSIIVEECIVKDPAGLKMAFGENPKRVYGERKQTPSTRMGTAGVIRDYFTKVKNYMKKKELAQKEGKEFTETDLKMEVGEMVLRKKIPARMHAHRADDILTAIRIAEEFGFNLVIEHGTEAYKISKVLAEKKIPVVVGPLLTFRTKLELKDLTMETIAKLLKDGVLIALMCDHPVIPLEFATVQAATAMRYGAKEEDLLKILTVNPAKILGLEDRIGSIEPGKDADLVVWSGHPFDMKSVVERVYIDGVEVFRREGHHHHHH | soluble |
